Tests used:
[1] = target: T1, Cathepsin G, purified at Novo Nordisk A/S using the method of Baugh and Travis
T1 sequence (P08311 21-244, species assumed, looked up): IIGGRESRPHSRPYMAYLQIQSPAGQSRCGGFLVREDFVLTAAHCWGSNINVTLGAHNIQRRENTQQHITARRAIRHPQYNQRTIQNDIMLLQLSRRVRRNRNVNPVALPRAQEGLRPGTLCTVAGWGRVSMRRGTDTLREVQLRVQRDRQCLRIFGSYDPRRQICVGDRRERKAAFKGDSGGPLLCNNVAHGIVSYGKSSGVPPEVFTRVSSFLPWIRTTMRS

[2] = target: Chymotrypsin (2.5 nM), Novo Nordisk A/S
[3] = target: Leukocyte Elastase, purified at Novo Nordisk A/S using the method of Baugh and Travis
[4] = target: Plasmin (10 nM), Kabi
[5] = target: Trypsin (8 nM), Novo Nordisk A/S, Bagsvaerd, Denmark
[6] = target: Urokinase (5 nM), Serono, Freigung, Germany
[7] = target: glandular kallikrein (1 U/ml), Sigma, St Louis, MO
[8] = target: human Factor XIIa (30 nM) (human) (UniProt P00748)
[9] = target: human Factor XIa (1 nM) (human) (UniProt P03951)
[10] = target: human Factor Xa (3 nM) (human) (UniProt P00742)
[11] = target: plasma kallikrein (3 nM), Kabi
[12] = target: recombinant human Factor VIIa (300 nM), Novo Nordisk A/S (human) (UniProt P08709)
[13] = target: recombinant human activated protein C (5 nM), Novo Nordisk A/S (human) (UniProt P04070)

% Inhibition [1]: 0%
% Inhibition [2]: 61%
% Inhibition [3]: 4%
% Inhibition [4]: 77%
% Inhibition [5]: 99.6%
% Inhibition [6]: 2%
% Inhibition [7]: 97%
% Inhibition [8]: 6%
% Inhibition [9]: 99.8%
% Inhibition [10]: 0%
% Inhibition [11]: 69%
% Inhibition [12]: 15%
% Inhibition [13]: 0%
Substance: APPH Kunitz-type inhibitor domain as tested in Table 3
